The record followed here is US20190054137A1 (INDIANA UNIVERSITY RESEARCH AND TECHNOLOGY, published 2019).

The target in this assay is T1, Recombinant human p65 protein (r-p65) with DDK tag (OriGene catalog number TP320780) (human, UniProt Q04206 1-551).
T1 construct: mature; also called r-p65-DDK; human r-p65; not shown: DDK tag
Description: plate-bound PGA probed with r-p65-DDK, method of Friguet, Scatchard analysis.

T1 sequence (Q04206 whole entry): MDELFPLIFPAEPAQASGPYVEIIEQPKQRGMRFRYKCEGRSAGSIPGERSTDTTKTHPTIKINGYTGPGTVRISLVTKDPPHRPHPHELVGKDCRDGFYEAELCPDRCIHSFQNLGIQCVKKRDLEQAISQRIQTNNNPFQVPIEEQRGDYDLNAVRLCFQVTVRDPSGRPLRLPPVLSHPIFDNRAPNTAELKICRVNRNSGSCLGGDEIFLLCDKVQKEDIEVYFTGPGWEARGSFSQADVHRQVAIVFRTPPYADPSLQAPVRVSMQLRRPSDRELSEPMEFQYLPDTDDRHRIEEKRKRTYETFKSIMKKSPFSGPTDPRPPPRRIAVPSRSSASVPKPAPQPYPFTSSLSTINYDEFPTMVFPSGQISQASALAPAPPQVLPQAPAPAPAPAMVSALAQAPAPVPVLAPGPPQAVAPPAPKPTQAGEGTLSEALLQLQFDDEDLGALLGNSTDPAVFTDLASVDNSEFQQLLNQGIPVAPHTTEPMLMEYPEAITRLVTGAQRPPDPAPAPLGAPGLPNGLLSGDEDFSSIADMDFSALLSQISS

Usually Kd stands for a measure of binding affinity in units of concentration. For Ac-APKPYQPRG-NH2 (also called Analog 20 (GA-1)) [PGA-1], the Kd was 4.28 µM. Then Ac-EPAPESPQV-NH2 (also called Analog 7 (GA-4)) [PGA-4], with 3.28 µM. Then Ac-EPAPLAPYG-NH2 (also called Analog 3 (GA-2)) [PGA-2], with 2.29 µM. Then Ac-EPAPEQPDG-NH2 (also called Analog 8 (GA-5)) [PGA-5], with 3.4 µM; and Ac-EPAPYQPEG-NH2 (also called Analog 14 (GA-3)) [PGA-3], with 3.27 µM.
